# Measurements published in US20160279196A1 (published 2016).
# T1: SSX-3 peptide on HLA-A*02:01 (human)
# T1 peptide: KVSEKIVYV
# T2: SSX-4 peptide on HLA-A*02:01 (human)
# T2 peptide: KSSEKIVYV
# T3: SSX-5 peptide on HLA-A*02:01 (human)
# T3 peptide: KASEKIIYV
# T4: SSX-9 peptide on HLA-A*02:01 (human)
# T4 peptide: KSSEKIIYV
# T5: SSX-10 peptide on HLA-A*02:01 (human)
# T5 peptide: KASEKILYV
# T6: SSX-1; SSX-8 peptide on HLA-A*02:01 (human)
# T6 peptide: KYSEKISYV
# T7: SSX-6 peptide on HLA-A*02:01 (human)
# T7 peptide: KFSEKISCV
# T8: SSX-7 peptide on HLA-A*02:01 (human)
# T8 peptide: KSLEKISYV
# T9: SSX-2 peptide on HLA-A*02:01 (human)
# T9 peptide: KASEKIFYV
# B1: SSX-2 TCR (TCR, V domains shown)
# Valpha: AQKITQTQPGMFVQEKEAVTLDCTYDTSDPSYGLFWYKQPSSGEMIFLIYQGSYDQQNATEGRYSLNFQKARKSANLVISASQLGDSAMYFCAMTSGFGNEKLTFGTGTRLTIIP
# Vbeta: DAMVIQNPRYQVTQFGKPVTLSCSQTLNHNVMYWYQQKSSQAPKLLFHYYDKDFNNEADTPDNFQSRRPNTSFCFLDIRSPGLGDAAMYLCATSRGQGGQPQHFGDGTRLSIL
# How the values were obtained:
# [1] = biological target: T1, SSX-3 peptide on HLA-A*02:01; experiment: cytokine release
# [2] = biological target: T2, SSX-4 peptide on HLA-A*02:01; experiment: cytokine release
# [3] = biological target: T3, SSX-5 peptide on HLA-A*02:01; experiment: cytokine release
# [4] = biological target: T4, SSX-9 peptide on HLA-A*02:01; experiment: cytokine release
# [5] = biological target: T5, SSX-10 peptide on HLA-A*02:01; experiment: cytokine release
# [6] = biological target: T6, SSX-1; SSX-8 peptide on HLA-A*02:01; experiment: cytokine release
# [7] = biological target: T7, SSX-6 peptide on HLA-A*02:01; experiment: cytokine release
# [8] = biological target: T8, SSX-7 peptide on HLA-A*02:01; experiment: cytokine release
# [9] = biological target: T9, SSX-2 peptide on HLA-A*02:01; experiment: multimer staining
binder,measurement,setting,value
B1,binding result,[1],recognises
same,binding result,[2],recognises
same,binding result,[3],recognises
same,binding result,[4],recognises
same,binding result,[5],recognises
same,binding result,[6],no recognition
same,binding result,[7],no recognition
same,binding result,[8],no recognition
same,binding result,[9],recognises
